The test has as its target T1, NaV1.5 ΔKPQ mutant (Homo sapiens, UniProt Q14524, DEL1505-1507).
T1 construct: expressed in transfected cells; host or cells: HEK293 (ATCC CRL1573)
In words: Multichannel recordings of late Na current, NaV1.5 ΔKPQ mutant in HEK293 cells. Type of test: cell-based. From the text:
The human NaV1.5 channel corresponds to clone M77235.1 (GenBank) and is subcloned into pGW 1 vector with HindIII and SaII. To facilitate construction of channelopathic mutations in the channel carboxy-terminus, we introduced silent mutations into NaV1.5 to introduce an NruI cutting site near the channel carboxy-terminus (5329-gtggccacg-5337 into 5329-gtCgcGacg-5337). Subsequently, we used overlap-extension PCR and ligated the PCR product into NaV1.5/pGW1 using NruI and XbaI restriction sites (mutations: E1784K, S1904L, IQ/AA, and Q1909R). For generating the ΔKPQ and IFM/IQM mutations, we used overlap-extension PCR and ligated in NaV1.5/pGW1 following restriction digest using KpnI and XbaI site. For generation of NaV1.5 truncations, we PCR amplified relevant segments using a forward primer upstream of the KpnI site and a reverse primer that truncated at the appropriate location (Δ1810 and Δ1885) and included an XbaI site and ligated into NaV1.5/pW1 vector. For LILA/WICW mutations, we used overlap extension and used restriction site AgeI and NheI for subsequent ligation. All segments subjected to PCR amplification were verified by sequencing. For generating human FHF2 splice-variants, we synthesized gene fragments and ligated into pcDNA3 using BamHI/EcoRI restriction sites. Human FHF1A and FHF1B were subcloned into ECFP-N3 vector, FHF2 splice variants and FHF3 were subcloned into pcDNA3. […]

In the case of “FixR-cpp: FixR fused to HIV-1 TAT transduction domain, YGRKKRRQRRRAAAIASSLIRQKRQARESNSERVSASKRRSSPSKG (SEQ ID NO: 2)”, the “change in INa,L” value (2-hour incubation with 10 μM FixR-cpp) is “diminished INa,L”.

With “FixR: minimal 39-amino-acid FHF1A amino-terminal effector domain, MAAAIASSLIRQKRQARESNSDRVSASKRRSSPSKDGRS (SEQ ID NO: 4), expressed as peptide”, the “change in INa,L” value (co-expression with NaV1.5 ΔKPQ in HEK293 cells) is “inhibits INa,L”.

For the origin of these results see US20250049953A1, “TREATMENT AND METHOD FOR INHIBITING LATE NA CURRENT” (THE TRUSTEES OF COLUMBIA UNIVERSITY IN THE CITY OF NEW YORK, priority 2022, published 2025).
